Here are results for one molecule from article PMC9405023, “NRF2 Regulates Cystathionine Gamma-Lyase Expression and Activity in Primary Airway Epithelial Cells Infected with Respiratory Syncytial Virus”.

The series deals with T1, recombinant NRF2 (rNRF2) (UniProt Q16236 1-605).
T1 sequence: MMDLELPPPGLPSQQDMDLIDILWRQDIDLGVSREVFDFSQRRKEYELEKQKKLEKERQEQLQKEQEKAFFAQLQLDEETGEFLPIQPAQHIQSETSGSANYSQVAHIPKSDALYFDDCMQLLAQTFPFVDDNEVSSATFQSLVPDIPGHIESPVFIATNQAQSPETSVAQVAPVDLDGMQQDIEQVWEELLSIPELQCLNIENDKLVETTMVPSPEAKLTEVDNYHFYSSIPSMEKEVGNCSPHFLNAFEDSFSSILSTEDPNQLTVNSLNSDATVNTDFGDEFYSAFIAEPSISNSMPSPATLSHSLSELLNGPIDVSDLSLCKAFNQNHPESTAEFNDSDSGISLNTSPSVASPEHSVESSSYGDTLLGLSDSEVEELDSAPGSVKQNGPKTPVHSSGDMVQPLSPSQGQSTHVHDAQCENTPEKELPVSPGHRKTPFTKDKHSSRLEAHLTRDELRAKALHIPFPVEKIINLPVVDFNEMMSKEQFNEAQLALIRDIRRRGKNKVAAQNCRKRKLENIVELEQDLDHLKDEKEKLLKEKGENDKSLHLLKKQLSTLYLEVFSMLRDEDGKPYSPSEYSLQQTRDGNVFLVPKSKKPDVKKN
The experiment in a line: EMSA; C1 and C2 complexes; 10 mM Tris-HCl pH 8.0, 50 mM KCl, 50 mM NaCl, 1 mM MgCl2, 1 mM EDTA, 5 mM DTT, 2.5% glycerol, 0.3 ug poly dI-dC, 15 fmol probe, 6-8 ug nuclear extract, 10 uL, 15 min, room temperature. The settings on record: protein: recombinant; label: 32P (probe); blunt. For orientation: Mobility shift assays separate free from complexed probe on a gel.

B1: -156/-120 CSE wild type (WT) (dsDNA)
DNA 1: CGGTCGCGGTGACGTTTCAGGCAACGCCTCTGCTGT
DNA 2: ACAGCAGAGGCGTTGCCTGAAACGTCACCGCGACCG
Turning to B1, the binding result was “binds”.
